Laboratory results published in patent US20040006009A1.

Molecular target: MASP (MBL-associated serine proteases) purified from an MBL deficient individual
Assay: cell-based or functional assay

- C4-activation compared to the reference N105-11A (EC50 = 100%); PE0407 5 mg/ml with 1 mM CaCl2, T = 2 months at +4° C.: 92%
- C4-activation compared to the reference N105-11A (EC50 = 100%); PE0407 5 mg/ml with 1 mM CaCl2, T = 2 months at +37° C.: 94%
- C4-activation compared to the reference N105-11A (EC50 = 100%); PE0407 5 mg/ml with 1 mM CaCl2, T = 2 months at -20° C.: 91%
- C4-activation compared to the reference N105-11A (EC50 = 100%); control 5 mg/ml without calcium, T = 2 months at 37° C.: 19%
- C4-activation, EC50% relative to a MBL standard; PE0305 10 mg/ml, T = 0 months (% relative to MBL standard): 94
- C4-activation, EC50% relative to a MBL standard; PE0305 10 mg/ml, T = 2½ months at +4° C. (% relative to MBL standard): 78
- C4-activation, EC50% relative to a MBL standard; PE0305 10 mg/ml, T = 2½ months at +37° C. (% relative to MBL standard): 36
- C4-activation, EC50% relative to a MBL standard; PE0305 10 mg/ml, T = 2½ months at -20° C. (% relative to MBL standard): 81
- C4-activation, EC50% relative to a MBL standard; PE0305 10 mg/ml, T = 5 months at +4° C. (% relative to MBL standard): 80.3
- C4-activation, EC50% relative to a MBL standard; PE0305 10 mg/ml, T = 5 months at +37° C. (% relative to MBL standard): 14.3
- C4-activation, EC50% relative to a MBL standard; PE0305 10 mg/ml, T = 5 months at -20° C. (% relative to MBL standard): 81.7
- C4 activation assay, EC50 relative to reference (100%); PE0238 1 mg/ml, 12 months at +4 degree (% of reference): 105
- C4 activation assay, EC50 relative to reference (100%); PE0238 1 mg/ml, 12 months at -20 degree (% of reference): 104
Substance: recombinant human mannan binding lectin (MBL) (from UniProt P11226 21-248)
